Experimental data from publication PMC5436001.

Target: mMyrf N-terminal fragment (from N-terminally tagged wild-type mouse Myrf) (mouse)
Assay: co-IP

mMyrf N-terminal fragment (from N-terminally tagged wild-type mouse Myrf) (domain or fragment)
stoichiometry N: 3
